According to US20140186370A1:

Target: vaccinia virus B5R 6xHis protein (baculovirus-expressed soluble extracellular domain) (vaccinia virus)

Hum IgG1 isotype control (antibody)
% inhibition: 0%
